The record followed here is PMC2132594.

The assay concerns the target human erythrocyte spectrin (heterodimer of α and β chains) (human) (UniProt P02549). Put plainly: single-particle fluorescence imaging. The conditions noted are these: remark: other sources report otherwise.

In turn, “human erythrocyte spectrin (heterodimer of α and β chains), P02549 1-2419; P11277 1-2137” displayed a percent of spots in the second peak (tetramers) of 40% and a percent of the total spectrin in the second peak (tetramers) of 59%.
